Experimental data taken from the RNAGym collection of RNA variant scans (doi:10.7554/elife.80360).

B1: HDV Ribozyme (parent)
chain: GGCCGGCAUGGUCCCAGCCUCCUCGCUGGCGCCGGCUGGGCAACAUUCCGAGGGGACCGUCCCCUCGGUAAUGGCGAAUGGGACCCA

Variants of: B1
Assay: self-cleavage, relative activity (ratio to wild type); higher = more cleavage; co-transcriptional
GGCCGGCAUGGCCCCAGCCUCCUCGCUGGCGCCGGCUGGGCAACAUUCCGAUGGGACCGUCCCCUCGGUAAUGGCGAAUGGGACCCA [U12C G52U] showed a self-cleavage of 0.35. GGCCGGCAUGGCCCCAGCCUCCUCGCUGGCGCCGGCUGGGCAACAUUCCGAAGGGACCGUCCCCUCGGUAAUGGCGAAUGGGACCCA [U12C G52A] showed a self-cleavage of 0.554. GGCCGGCAUGGCCCCAGCCUCCUCGCUGGCGCCGGCUGCGCAACAUUCCGAGGGGACCGUCCCCUCGGUAAUGGCGAAUGGGACCCA [U12C G39C] showed a self-cleavage of 0. Work on GGCCGGCAUGGCCCCAGCCUCCUCGCUGGCGCCGGCUGAGCAACAUUCCGAGGGGACCGUCCCCUCGGUAAUGGCGAAUGGGACCCA [U12C G39A] yielded a self-cleavage of 0.106. GGCCGGCAUGGCCCCAGCCUCCUCGUUGGCGCCGGCUGGGCAACAUUCCGAGGGGACCGUCCCCUCGGUAAUGGCGAAUGGGACCCA [U12C C26U] gave a self-cleavage of 0.776. GGCCGGCAUGGCCCCAGCCUCCUCGAUGGCGCCGGCUGGGCAACAUUCCGAGGGGACCGUCCCCUCGGUAAUGGCGAAUGGGACCCA [U12C C26A] showed a self-cleavage of 0.831. Work on GGCCGGCAUGGCCCCAGCCUCCUCGCUGGCGCCGGCUGGGCAACAUUCCUAGGGGACCGUCCCCUCGGUAAUGGCGAAUGGGACCCA [U12C G50U] yielded a self-cleavage of 0.332. GGCCGGCAUGGCCCCAGCCUCCUCGCUGGCGCCGGCUGGGCAACAUUCCAAGGGGACCGUCCCCUCGGUAAUGGCGAAUGGGACCCA [U12C G50A] showed a self-cleavage of 0.359. Work on GGCCGGCAUGGCCCCAGCCUCCUCGCUGGCGCCGGAUGGGCAACAUUCCGAGGGGACCGUCCCCUCGGUAAUGGCGAAUGGGACCCA [U12C C36A] yielded a self-cleavage of 0.142. GGCCGGCAUGGCCCCAGCCUCCUCGCUGGCGCCGGCUGGGCAACAUUCCGAGGGGAUCGUCCCCUCGGUAAUGGCGAAUGGGACCCA [U12C C57U] showed a self-cleavage of 0.293. GGCCGGCAUGGCCCCAGCCUCCUCGCUGGCGCCGGCUGGGCAACAUUCCGAGGGGACCGUCCCCUCGGUAAUAGCGAAUGGGACCCA [U12C G73A] showed a self-cleavage of 0.289. GGCCGGCAUGGCCCCAGCCUCCUCGCUGGCGCCGGCUGGGCAACAUUCCGAGGGGACCGUCCCCUCUGUAAUGGCGAAUGGGACCCA [U12C G67U] gave a self-cleavage of 0.38. GGCCGGCAUGGCCCCAGCCUCCUCGCUGGCGCCGGCUGGGCAACAUUCCGAGGGGACCGUCCCCUCGGUAAUGGAGAAUGGGACCCA [U12C C75A] gave a self-cleavage of 0.166. In the case of GGCCGGCAUGGCCCCAGCCUCCUCGCUGGCGCCGGCUGGGCAACAUUCCGAGGGGACCGUCCCCUCGGUAAUGGUGAAUGGGACCCA [U12C C75U], the self-cleavage is reported as 0.104. GGCCGGCAUGGCCCCAGCCUCCUCGCUGGCGCCGGCUGGGCAACAUUCCGAGGGGACCGUCCCCUCGGUAAUGGGGAAUGGGACCCA [U12C C75G] gave a self-cleavage of 0.166. In the case of GGCCGGCAUGGCCCCAGCCUCCUCGCUGGCUCCGGCUGGGCAACAUUCCGAGGGGACCGUCCCCUCGGUAAUGGCGAAUGGGACCCA [U12C G31U], the self-cleavage is reported as 0.0386. GGCCGGCAUGGCCCCAGCCUCCUCGCUGGCCCCGGCUGGGCAACAUUCCGAGGGGACCGUCCCCUCGGUAAUGGCGAAUGGGACCCA [U12C G31C] gave a self-cleavage of 0.123. With GGCCGGCAUGGCCCCAGCCUCCUCGCUGGCACCGGCUGGGCAACAUUCCGAGGGGACCGUCCCCUCGGUAAUGGCGAAUGGGACCCA [U12C G31A] the self-cleavage was 0.237. In the case of GGCCGGCAUGGCCCCAGCCUCCUCGCUGGCGCCGGCUGGGCAACAUUCCGAGGGGACCGUCCCCUCGGUAAUGGCGAAUGGGACACA [U12C C85A], the self-cleavage is reported as 0.185. For GGCCGGCAUGGCCCCAGCCUCCUCGCUGGCGCCGGCUGGGCAACAUUCCGAGGGGACCGUCCCCUCGGUAAUGGCGAAUGGGACUCA [U12C C85U], the self-cleavage was 0. GGCCGGCAUGGCCCCAGCCUCCUCGCUGGCGCCGGCUGGGCAACAUUCCGAGGGGACCGUCCCCUCGUUAAUGGCGAAUGGGACCCA [U12C G68U] showed a self-cleavage of 0.284. Variant GGCCGGCAUGGCCCCAGCCUCCUCGCUGGCGCCGGCUGGGCAAGAUUCCGAGGGGACCGUCCCCUCGGUAAUGGCGAAUGGGACCCA [U12C C44G] has a self-cleavage of 0. GGCCGGCAUGGCCCCAGCCUCCUCGCUGGCGCCGGCUGGGCAAAAUUCCGAGGGGACCGUCCCCUCGGUAAUGGCGAAUGGGACCCA [U12C C44A] gave a self-cleavage of 0.252. Work on GGCCGGCAUGGCCCCAGCCUCCUCGCUGGCGCCGGCUGGGCAACAUUCCGAGGGGACUGUCCCCUCGGUAAUGGCGAAUGGGACCCA [U12C C58U] yielded a self-cleavage of 0.222. With GGCCGGCAUGGCCCCAGCCUCCUCGCUGGCGCCGGCUGGGCAACAUUCCGAGGGGACGGUCCCCUCGGUAAUGGCGAAUGGGACCCA [U12C C58G] the self-cleavage was 0.208. GGCCGGCAUGGCCCCAGCCUCCUCGCUGGCGUCGGCUGGGCAACAUUCCGAGGGGACCGUCCCCUCGGUAAUGGCGAAUGGGACCCA [U12C C32U] gave a self-cleavage of 0.135. Work on GGCCGGCAUGGCCCCAGCCUCCUCGCUGGCGGCGGCUGGGCAACAUUCCGAGGGGACCGUCCCCUCGGUAAUGGCGAAUGGGACCCA [U12C C32G] yielded a self-cleavage of 0. For GGCCGGCAUGGCCCCAGCCUCCUCGCUGGCGCCGGCUAGGCAACAUUCCGAGGGGACCGUCCCCUCGGUAAUGGCGAAUGGGACCCA [U12C G38A], the self-cleavage was 0.0875. Work on GGCCGGCAUGGCCCCAGCCUCCUCGCUGGCGCCGGCUCGGCAACAUUCCGAGGGGACCGUCCCCUCGGUAAUGGCGAAUGGGACCCA [U12C G38C] yielded a self-cleavage of 0.0475. For GGCCGGCAUGGCCCCAGCCUCCUCGCUGGCGCCGGCUGGGCAACAUUCCGAGGGGACCGUCCCCUAGGUAAUGGCGAAUGGGACCCA [U12C C66A], the self-cleavage was 0.332. GGCCGGCAUGGCCCCAGCCUCCUCGCUGGCGCCGGCUGGGCAACAUUCCGAGGGGACCGUCCCCUUGGUAAUGGCGAAUGGGACCCA [U12C C66U] showed a self-cleavage of 0.655. GGCCGGCAUGGCCCCAGCCUCCUCGCUGGCGCCGGCUGGGCAACAUUCCGAGGGAACCGUCCCCUCGGUAAUGGCGAAUGGGACCCA [U12C G55A] showed a self-cleavage of 0.237.
